Twelve molecules from patent publication US20180051082A1 (ANAPTYSBIO, published 2018) can be followed below.

Experiment [1] deals with T1, monomeric soluble human PD1-Avi-His (human, UniProt Q15116 25-170).
T1 construct: extracellular domain; not shown: Avi tag and His tag at the C-terminus
Nature of the experiment: SPR (BIACORE T200), antibody captured on anti-human IgG, monomeric PD1-Avi-His flowed, 1:1 fit. On the procedure:
SPR analyses were carried out using a BIACORE™ T200 instrument, and kinetic constants were determined using the BIACORE™ T200 evaluation software. Experimental parameters were chosen to ensure that saturation would be reached at the highest antigen concentrations and that Rmax values would be kept under 30 RU. GE anti-Human IgG (Fc-specific, approximately 7,000 RU) was immobilized on a BIACORETM CM5 chip using EDC-activated amine coupling chemistry. Antibodies (0.5 μg/mL, 60 second capture time) were then captured using this surface. Next, monomeric soluble human PD1-Avi-His was flowed over captured antibody (300 second association, 300 second dissociation) using a three-fold serial dilution series from 500 nM to 2 nM. Captured antibody and antigen were removed between each cycle using 3 M MgCl₂ (60 second contact time) in order to ensure a fresh binding surface for each concentration of antigen. The resulting sensorgrams were fit globally using a 1:1 binding model in order to calculate on- and off-rates (kₐ and kd, respectively), as well as affinities (KD).

Experiment [2] concerns the target T1, monomeric soluble human PD1-Avi-His. Kind of experiment: KINEXA 3000 solution-based affinity, PD1-Avi-His titrated against constant antibody. On the procedure: Solution-based affinity analyses were carried out using a KINEXA™ 3000 assay (Sapidyne Instruments, Boise, Idaho), and results were analyzed using KINEXA™ Pro Software 3.2.6. Experimental parameters were selected to reach a maximum signal with antibody alone between 0.8 and 1.2 V, while limiting nonspecific binding signal with buffer alone to less than 10% of the maximum signal. Azlactone beads (50 mg) were coated with antigen by diluting in a solution of PD-1-Avi-His (50 μg/mL in 1 mL) in 50 mM Na₂CO₃. The solution was rotated at room temperature for 2 hours, and beads were pelleted in a picofuge and washed twice with blocking solution (10 mg/mL BSA, 1 M Tris-HCl, pH 8.0). Beads were resuspended in blocking solution (1 mL), rotated at room temperature for 1 hour, and diluted in 25 volumes PBS/0.02% NaN3. […] All samples were diluted in PBS, 0.2% NaN₃, 1 mg/mL BSA and allowed to equilibrate at room temperature for 30 hours. Additionally, samples containing only antibody and only buffer were tested in order to determine maximum signal and nonspecific binding signal, respectively.

The target of experiment [3] is T2, full-length human PD-1 on the cell surface (human, UniProt Q15116 25-288). Kind of experiment: cell-based or functional assay.
Experiment [4] addresses T2, full-length human PD-1 on the cell …. Nature of the experiment: hybridoma screening, flow cytometry on PD-1 CHO-K1 cells (Example 1). On the procedure: Hybridoma supernatants from ten 96-well plates were screened for binding to a CHO-K1 cell clone stably transfected with a nucleic acid sequence encoding full length human PD-1 and compared to binding to untransfected CHO-K1 cells. Specifically, hybridoma supernatants were diluted 1:1 with PBS/2% FBS and incubated with an equal volume of PD-1 CHO-K1 cells (2.5×10⁵ cells in PBS, 2% FBS) for 30 minutes at 4° C. Cells were centrifuged, washed once with PBS/1% FBS, and incubated with APC-conjugated goat anti-mouse IgG (H+L) (Southern Biotechnology, Birmingham, Ala.) for 30 minutes at 4° C. […] Mouse IgG levels were quantified by ELISA.

The target is the same in experiment [5]. Kind of experiment: binding to PD-1 antigens as in Example 1 (format not restated).

T1 sequence (Q15116 25-170): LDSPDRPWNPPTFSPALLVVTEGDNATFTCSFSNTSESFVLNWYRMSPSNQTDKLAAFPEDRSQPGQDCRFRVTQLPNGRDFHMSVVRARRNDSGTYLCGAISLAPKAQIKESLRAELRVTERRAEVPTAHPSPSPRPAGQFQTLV
T2 sequence (Q15116 25-288): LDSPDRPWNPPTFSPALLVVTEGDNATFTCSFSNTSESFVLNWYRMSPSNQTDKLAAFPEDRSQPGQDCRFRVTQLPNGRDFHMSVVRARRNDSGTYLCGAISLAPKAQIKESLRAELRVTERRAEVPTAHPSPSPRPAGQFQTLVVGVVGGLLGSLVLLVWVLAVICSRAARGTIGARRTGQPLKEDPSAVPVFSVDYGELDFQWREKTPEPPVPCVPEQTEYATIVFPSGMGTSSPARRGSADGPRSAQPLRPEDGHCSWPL

B1: APE1923 (antibody, human IgG1, V domains shown)
VH: EVQLLESGGGLVQPGGSLRLSCAASGFTFSSYTMSWVRQAPGKGLEWVSVISSGGNSAYYPDSVQGRFTISRDNSKNTLYLQMNSLRAEDTAVYYCAKEHYGTSHFAYWGQGTLVTVSS
VL: EIVLTQSPATLSLSPGERATLSCRASESVDNFGISFMSWYQQKPGQAPRLLIYAASNPGSGIPARFSGSGSGTDFTLTISSLEPEDFAVYYCQQSKEVPYTFGQGTKLEIK
notes: expressed from HEK 293 cells as human IgG1
In the case of B1, in experiment [1], the dissociation constant Kd turned out to be 9 nM, the off-rate constant (koff) is 0.0017 s⁻¹ and the kon worked out at 190000 M⁻¹ s⁻¹. Also, in experiment [2], binding was put at a Kd of 1 nM.

B2: APE1922 (antibody, human IgG1, V domains shown)
VH: EVQLLESGGGLVQPGGSLRLSCAASGFTFSSYTMSWVRQAPGKGLEWVSVISSGGDSAYYPDSVQGRFTISRDNSKNTLYLQMNSLRAEDTAVYYCAKEHYGTSHFAYWGQGTLVTVSS
VL: EIVLTQSPATLSLSPGERATLSCRASESVDNFGISFMSWYQQKPGQAPRLLIYAASNPGSGIPARFSGSGSGTDFTLTISSLEPEDFAVYYCQQSKEVPYTFGQGTKLEIK
notes: as for B1
In experiment [1], B2 had an equilibrium dissociation constant (Kd) of 15 nM, a koff of 0.0018 s⁻¹ and a kon of 130000 M⁻¹ s⁻¹.

B3: APE1924 (antibody, human IgG1, V domains shown)
VH: EVQLLESGGGLVQPGGSLRLSCAASGFTFSSYTMSWVRQAPGKGLEWVSVISSGGNYAYYPDSVQGRFTISRDNSKNTLYLQMNSLRAEDTAVYYCAKEHYGTSHFAYWGQGTLVTVSS
VL: EIVLTQSPATLSLSPGERATLSCRASESVDNFGISFMSWYQQKPGQAPRLLIYAASNPGSGIPARFSGSGSGTDFTLTISSLEPEDFAVYYCQQSKEVPYTFGQGTKLEIK
notes: as for B1
In experiment [1], B3 yielded a dissociation constant (Kd) of 10 nM, a koff of 0.0018 s⁻¹ and a kon of 180000 M⁻¹ s⁻¹. In addition, the dissociation constant (Kd) in experiment [2] was ~1 nM.

B4: APE1950 (antibody, human IgG1, V domains shown)
VH: EVQLLESGGGLVQPGGSLRLSCAASGFTFSSYTMSWVRQAPGKGLEWVSVISSGGDSTYYPDSVQGRFTISRDNSKNTLYLQMNSLRAEDTAVYYCAKEHYGTSHFAYWGQGTLVTVSS
VL: EIVLTQSPATLSLSPGERATLSCRASESVDNFGISFMSWYQQKPGQAPRLLIYAASNPGSGIPARFSGSGSGTDFTLTISSLEPEDFAVYYCQQSKEVPYTFGQGTKLEIK
notes: as for B1
With B4, in experiment [1], the Kd is 17 nM, the dissociation rate constant (koff) is 0.0025 s⁻¹ and the on-rate (kon) was 150000 M⁻¹ s⁻¹.

B5: APE1963 (antibody, human IgG1, V domains shown)
VH: EVQLLESGGGLVQPGGSLRLSCAASGFTFSSYTMSWVRQAPGKGLEWVSVISSGGNSAYYPDSVQGRFTISRDNSKNTLYLQMNSLRAEDTAVYYCAKEYYGSSHFAYWGQGTLVTVSS
VL: EIVLTQSPATLSLSPGERATLSCRASESVDNFGISFMSWYQQKPGQAPRLLIYAASNPGSGIPARFSGSGSGTDFTLTISSLEPEDFAVYYCQQSKEVPYTFGQGTKLEIK
notes: as for B1
On to B5, for which, in experiment [1], the Kd came out at 17 nM, the koff was 0.001 s⁻¹ and the on-rate constant (kon) was 58000 M⁻¹ s⁻¹.

B6: APE2058 (antibody, human IgG1, V domains shown)
VH: EVQLLESGGGLVQPGGSLRLSCAASGFTFSSYDMSWVRQAPGKGLEWVSTISGGGSYTYYQDSVKGRFTISRDNSKNTLYLQMNSLRAEDTAVYYCASPYYAMDYWGQGTTVTVSS
VL: DIQLTQSPSFLSAYVGDRVTITCKASQDVGTAVAWYQQKPGKAPKLLIYWASTLHTGVPSRFSGSGSGTEFTLTISSLQPEDFATYYCQHYSSYPWTFGQGTKLEIK
notes: expressed from HEK 293 cells as human IgG1; also called anti-PD-1
In experiment [1], B6 showed an equilibrium dissociation constant (Kd) of 2 nM, a koff of 0.00064 s⁻¹ and a kon of 300000 M⁻¹ s⁻¹. Also, in experiment [2], binding was put at a Kd of 0.2 nM. Moreover, the “EC50, multiple human CD4+ T-cell MLR assays” value in experiment [3] came to 0.02 µg/mL.

B7: 6E9 (mouse monoclonal antibody) (antibody, V domains shown)
VH: EVMLVESGGGLVKPGGSLKLSCAASGFTFSSYDMSWVRQTPEKRLEWVATISGGGSYTYYQDSVKGRFTISRDNAKNTLYLQMSSLRSEDTAMYYCASPYYAMDYWGQGTSVTVSS
VL: DIVMTQSHKFMSTSVGDRVSITCKASQDVGTAVAWYQQKPGQSPKLLIYWASTRHTGVPDRFTGSGSGTDFTLTISNVQSEDLADYFCQHYSSYPWTFGGGTKLEIKR
notes: Mouse hybridoma antibody
Turning to B7, in experiment [4], the binding result is “binds”.

B8: 6E9 mouse:human chimeric antibody (antibody, human IgG1, V domains shown)
VH: EVMLVESGGGLVKPGGSLKLSCAASGFTFSSYDMSWVRQTPEKRLEWVATISGGGSYTYYQDSVKGRFTISRDNAKNTLYLQMSSLRSEDTAMYYCASPYYAMDYWGQGTSVTVSS
VL: DIVMTQSHKFMSTSVGDRVSITCKASQDVGTAVAWYQQKPGQSPKLLIYWASTRHTGVPDRFTGSGSGTDFTLTISNVQSEDLADYFCQHYSSYPWTFGGGTKLEIKR
notes: also called chimeric 6E9
Take B8: in experiment [5], the binding result is recorded as “binds”.

B9: 9A2 (mouse monoclonal antibody) (antibody, V domains shown)
VH: DVKLVESGGGLVKPGGSLKLSCAASGFTFSSYTLSWVRQTPGKRLEWVAVISSGGDYAYYPDSVQGRFTISRDNAKNTLYLQMNSLKSEDTAMYYCSRDHYGTSHFAYWGQGTLVTVSA
VL: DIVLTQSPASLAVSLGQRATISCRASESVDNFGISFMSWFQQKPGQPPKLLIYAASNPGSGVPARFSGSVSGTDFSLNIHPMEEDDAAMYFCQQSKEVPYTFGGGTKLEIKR
notes: Mouse hybridoma antibody
As for B9, the binding result in experiment [4] is on record as “binds”.

B10: 9A2 mouse:human chimeric antibody (antibody, human IgG1, V domains shown)
VH: DVKLVESGGGLVKPGGSLKLSCAASGFTFSSYTLSWVRQTPGKRLEWVAVISSGGDYAYYPDSVQGRFTISRDNAKNTLYLQMNSLKSEDTAMYYCSRDHYGTSHFAYWGQGTLVTVSA
VL: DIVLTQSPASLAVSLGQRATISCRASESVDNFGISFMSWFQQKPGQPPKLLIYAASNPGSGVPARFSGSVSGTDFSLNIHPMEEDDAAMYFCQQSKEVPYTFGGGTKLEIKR
notes: also called chimeric 9A2
For the molecule B10, in experiment [5], the binding result is “binds”.

B11: 10B11 (mouse monoclonal antibody) (antibody, V domains shown)
VH: DVKLVESGGGLVKPGGSLKVSCAASGFTFSSYTMSWVRQTPEKRLEWVAVISSGGNSTYYPDSVKGRFTISRDNAKNTLYLQMSSLKSEDTAMYYCTREHYGSSHFAYWGQGTLVTVSA
VL: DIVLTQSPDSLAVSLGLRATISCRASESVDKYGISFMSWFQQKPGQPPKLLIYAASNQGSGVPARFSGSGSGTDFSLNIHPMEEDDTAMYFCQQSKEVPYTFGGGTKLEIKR
notes: Mouse hybridoma antibody
For the molecule B11, in experiment [4], the binding result is on record as “binds”.

B12: 10B11 mouse:human chimeric antibody (antibody, human IgG1, V domains shown)
VH: DVKLVESGGGLVKPGGSLKVSCAASGFTFSSYTMSWVRQTPEKRLEWVAVISSGGNSTYYPDSVKGRFTISRDNAKNTLYLQMSSLKSEDTAMYYCTREHYGSSHFAYWGQGTLVTVSA
VL: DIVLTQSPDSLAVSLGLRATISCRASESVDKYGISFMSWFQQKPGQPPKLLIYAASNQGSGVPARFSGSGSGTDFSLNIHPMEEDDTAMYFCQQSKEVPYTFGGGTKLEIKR
notes: also called chimeric 10B11
Turning to B12, in experiment [5], the binding result is “binds”.
